# Laboratory results from patent US20230372484A1 (VOR BIOPHARMA, published 2023).
# Molecular target: CD33 (UniProt P20138 18-364, limits assumed)
# Test: cell-based or functional assay
# Sequence of CD33 (P20138 18-364 limits assumed): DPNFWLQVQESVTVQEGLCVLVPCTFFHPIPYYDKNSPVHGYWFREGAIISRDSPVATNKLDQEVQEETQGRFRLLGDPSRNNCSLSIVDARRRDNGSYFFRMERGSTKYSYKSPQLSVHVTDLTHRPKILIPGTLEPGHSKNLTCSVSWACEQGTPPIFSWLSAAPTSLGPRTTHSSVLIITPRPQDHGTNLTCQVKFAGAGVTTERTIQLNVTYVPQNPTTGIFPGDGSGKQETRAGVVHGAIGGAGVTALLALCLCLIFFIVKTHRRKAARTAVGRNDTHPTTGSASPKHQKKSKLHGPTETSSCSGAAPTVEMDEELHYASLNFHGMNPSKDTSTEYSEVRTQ
Binder,Ratio (NFAT-inducible reporter with wild-type MOLM-13 relative to MOLM-13 CD33KO) [ratio],Testing FP2 Expression (CD33+)
CD33-CAR4 (other) EVQLVQSGAEVKKPGSSVKVSCKASGYTITDSNIHWVRQAPGQSLEWIGYIYPYNGGTDYNQKFKNRATLTVDNPTNTAYMELSSLRSEDTAFYYCVNGNPWLAYWGQGTLVTVSSGGGGSGGGGSGGGGSDIQLTQSPSTLSASVGDRVTITCRASESLDNYGIRFLTWFQQKPGKAPKLLMYAASNQGSGVPSRFSGSGSGTEFTLTISSLQPDDFATYYCQQTKEVPWSFGQGTKVEVKRTSSGAAAIEVMYPPPYLDNEKSNGTIIHVKGKHLCPSPLFPGPSKPFWVLVVVGGVLACYSLLVTVAFIIFWVRSKRSRLLHSDYMNMTPRRPGPTRKHYQPYAPPRDFAAYRSRVKFSRSADAPAYQQGQNQLYNELNLGRREEYDVLDKRRGRDPEMGGKPRRKNPQEGLYNELQKDKMAEAYSEIGMKGERRRGKGHDGLYQGLSTATKDTYDALHMQALPPRGS,2.41,4.14 % of constitutive-fluorescence-positive cells
CD33-CAR3 (other) QVQLVQSGAEVKKPGSSVKVSCKASGYTFTDYNMHWVRQAPGQGLEWIGYIYPYNGGTGYNQKFKSKATITADESTNTAYMELSSLRSEDTAVYYCARGRPAMDYWGQGTLVTVSSGGGGSGGGGSGGGGSDIQMTQSPSSLSASVGDRVTITCRASESVDNYGISFMNWFQQKPGKAPKLLIYAASNQGSGVPSRFSGSGSGTDFTLTISSLQPDDFATYYCQQSKEVPWTFGQGTKVEIKSGAAAIEVMYPPPYLDNEKSNGTIIHVKGKHLCPSPLFPGPSKPFWVLVVVGGVLACYSLLVTVAFIIFWVRSKRSRLLHSDYMNMTPRRPGPTRKHYQPYAPPRDFAAYRSRVKFSRSADAPAYQQGQNQLYNELNLGRREEYDVLDKRRGRDPEMGGKPRRKNPQEGLYNELQKDKMAEAYSEIGMKGERRRGKGHDGLYQGLSTATKDTYDALHMQALPPRGS,1.44,3.9 % of constitutive-fluorescence-positive cells

# Next, values leading:
Ratio (NFAT-inducible reporter with wild-type MOLM-13 relative to MOLM-13 CD33KO) [ratio],Testing FP2 Expression (CD33+),Binder
8.5,28.2 % of constitutive-fluorescence-positive cells,CD33-CAR5 (other) QVKLEESGGGSVQAGESLRLSCTASGITFRDYDIDWYRQAPGKEREWLATITPSGTTHYPDSVKGRATISRDSAKNTVYLQMNSLKPEDTARYECNTLAYWGSGTQVTVSSAAATTTPAPRPPTPAPTIASQPLSLRPEACRPAAGGAVHTRGLDFACDIYIWAPLAGTCGVLLLSLVITLYCKRGRKKLLYIFKQPFMRPVQTTQEEDGCSCRFPEEEEGGCELRVKFSRSADAPAYQQGQNQLYNELNLGRREEYDVLDKRRGRDPEMGGKPRRKNPQEGLYNELQKDKMAEAYSEIGMKGERRRGKGHDGLYQGLSTATKDTYDALHMQALPPR
3.6,22.9 % of constitutive-fluorescence-positive cells,CD33-CAR6 (other) QVQLVETGGGLVRAGGSLRLSCAASGRTADIYNIGWFRQAPGKEREFVAAITWIGRTPYYADAVKGRFAFSTDSAKNTVSLQMDNLKPEDTGVYYCNAAHYLEGNTDYYWGQGTQVTVSSAAATTTPAPRPPTPAPTIASQPLSLRPEACRPAAGGAVHTRGLDFACDIYIWAPLAGTCGVLLLSLVITLYCKRGRKKLLYIFKQPFMRPVQTTQEEDGCSCRFPEEEEGGCELRVKFSRSADAPAYQQGQNQLYNELNLGRREEYDVLDKRRGRDPEMGGKPRRKNPQEGLYNELQKDKMAEAYSEIGMKGERRRGKGHDGLYQGLSTATKDTYDALHMQALPPR
1.98,17.6 % of constitutive-fluorescence-positive cells,CD33-CAR7 (other) MELGLSWVVLAALLQGVQAQVQLVQPGGSLRLFCVASEEFFSIYAMGWYRQAPGKQHEMVARFTRDGKITYADSAKGRFTITRDAKNTLNLQMNGLIPEDTAVYYCNINHYWGQGTQVTVSSAAATTTPAPRPPTPAPTIASQPLSLRPEACRPAAGGAVHTRGLDFACDIYIWAPLAGTCGVLLLSLVITLYCKRGRKKLLYIFKQPFMRPVQTTQEEDGCSCRFPEEEEGGCELRVKFSRSADAPAYQQGQNQLYNELNLGRREEYDVLDKRRGRDPEMGGKPRRKNPQEGLYNELQKDKMAEAYSEIGMKGERRRGKGHDGLYQGLSTATKDTYDALHMQALPPR
